Results as given in US8722856B2, “Anti-MUC1 antibody” (National University Corporation Hokkaido University, priority 2008, dated 2014).

Columns and labels:
Format in all cases: binding
[1] = molecular target: T1, Biotin-Tn(DT*R)-100 (Compound No. 21) (Homo sapiens, UniProt P15941); assay: Affinity of antibody, Biacore T100, sensor chip SA; conditions: Biotin-Tn(DT*R)-100 solid-phased
T1 construct: made in house; host or cells: chemical solid-phase synthesis
Excerpt: Biotin-Tn(DT*R)-100 (Compound No. 21) was solid-phased on a sensor chip SA (manufactured by GE Healthcare), and a dissociation constant of each of the following MUC1 antibody, 1B2, PankoMab (manufactured by GLYCOPOPE) currently at a pre-clinical stage, VU-2G7 (manufactured by MONOSAN) which is an antibody obtained by glycopeptide immunization, O.N.272 (manufactured by SantaCruz), C595 (manufactured by Acris), B416 (manufactured by GeneTex), and VU-3C6 (manufactured by Exalpha Biologicals) was analyzed using Biacore T100, and the result was as shown in the following Table 3.

[2] = molecular target: T2, ST2-6(DT*R)-20 (Compound No. 10) (Homo sapiens, UniProt P15941); assay: Sugar chain specificity, competitive ELISA against Biotin-Tn(DT*R)-100; conditions: glycopeptide ST2-6 (Compound No. 10)
T2 construct: Synthesis of MUC1 Tn20-mer Glycopeptide; made in house; host or cells: chemical solid-phase synthesis
T2 sequence (P15941 136-155): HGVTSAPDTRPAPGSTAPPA
Method: (§1) Such specificity can be expressed by a difference in cross reactivity. The cross reactivity is obtained by a calculation equation of (IC50 for cancer-associated structure 2,3ST/IC50 for sugar chain structure to be compared)×100(%). As used herein, inclusion of specificity refers to a difference of 2 fold or more.
(§2) Ten days after cell fusion, screening of a specific antibody-producing cell was performed. ELISA was used in screening is as follows. To each well of a 384-well microtiter plate (manufactured by Nunc) 35 μl of a Tris buffer (50 mM Tris-HCl, pH 7.5) containing 0.35 μg of an anti-mouse IgG antibody (manufactured by Shibayagi Co., Ltd.) was added to immobilize the antibody at 4° C. for 16 hours. After these wells were washed with 90 μl of a washing solution (physiological saline containing 0.01% Tween 20) once, 200 μl of BLOCK ACE (manufactured by Dainippon Sumitomo Pharma Co., Ltd.) was added, and this was allowed to stand at room temperature for 2 hours for blocking (an anti-mouse IgG antibody solid-phased plate). After each well was washed with 90 μl of a washing solution once, 10 μl of a hybridoma culture supernatant, 10 μl of a buffer A (50 mM Tris buffer containing 0.5% bovine serum albumin, 0.01% Tween 80, 0.05% Proclin 150, and 0.15 M. NaCl, pH 7.4), and 10 μl of a buffer A containing 0.01 ng of Biotin-2,3-ST(DT*R)-20 (Compound No. 16 of Table 1) and 2 ng of Streptavidin-HRP (manufactured by PIERCE) were added to perform a reaction at 4° C. for 16 hours. Then, after each well was washed with 90 μl of a washing solution three times, 25 μl of TMB+-Substrate-Chromogen (manufactured by DAKO) was added to develop a color at room temperature for 30 minutes, 25 μl of 0.05 M sulfuric acid was added to stop the reaction, and absorbance was measured at 450 nm. […] Using a mouse monoclonal antibody isotyping ELISA kit (manufactured by BD Bioscience), a subclass of the antibody was determined and, as a result, an isotype of 1B2 was IgG2a.
(§3) Fifteen (15) μl of a buffer A containing a MUC1 antibody was added to an anti-mouse IgG antibody solid-phased plate and the reaction was allowed to proceed at room temperature for 3 hours. […] Then, after each well was washed with 90 μl of a washing solution three times, 15 μl of TMB+-Substrate-Chromogen (manufactured by DAKO) was added to develop a color at room temperature for 30 minutes, 15 μl of 0.05 M sulfuric acid was added to stop the reaction, and absorbance at 450 nm was measured.

[3] = molecular target: T3, 2,3ST6L(DT*R)-20 (Compound No. 7) (Homo sapiens, UniProt P15941); assay: as above; conditions: glycopeptide 2,3ST6L (Compound No. 7)
T3 construct: Synthesis of MUC1 Tn20-mer Glycopeptide; made in house; host or cells: chemical solid-phase synthesis (Compound 5), then enzymatic sugar extension
Method: as §1, §2, §3

[4] = molecular target: T4, T(DT*R)-20 (Compound No. 1) (Homo sapiens, UniProt P15941); assay: as above; conditions: glycopeptide T (Compound No. 1)
T4 construct: Synthesis of MUC1 Tn20-mer Glycopeptide; made in house; host or cells: chemical solid-phase synthesis
Method: as §1, §2, §3

[5] = molecular target: T5, 40 (Compound No. 13), non-glycosylated (Homo sapiens, UniProt P15941); assay: as above; conditions: Non-glycosylated peptide (Compound No. 13)
T5 construct: made in house; host or cells: chemical solid-phase synthesis
T5 sequence (P15941 136-175): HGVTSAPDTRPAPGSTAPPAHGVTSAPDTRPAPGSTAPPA
Method: as §1, §2, §3

[6] = molecular target: T6, 2,3-ST6SL(DT*R)-20 (Compound No. 8) (Homo sapiens, UniProt P15941); assay: as above; conditions: glycopeptide 2,3ST6SL (Compound No. 8)
T6 construct: Synthesis of MUC1 Tn20-mer Glycopeptide; made in house; host or cells: chemical solid-phase synthesis (Compound 5), then enzymatic sugar extension
Method: as §1, §2, §3

[7] = molecular target: T7, dST(DT*R)-20 (Compound No. 11) (Homo sapiens, UniProt P15941); assay: as above; conditions: glycopeptide dST (Compound No. 11)
T7 construct: Synthesis of MUC1 Tn20-mer Glycopeptide; made in house; host or cells: chemical solid-phase synthesis with enzymatic sialylation
Method: as §1, §2, §3

[8] = tested on: Biotin-Tn(DT*R)-20, -40, -60, -80, -100 (Compound Nos. 17-21); assay: Tandem repeat dependency ELISA on Streptavidin solid-phased plate
Method: To each well of a 384-well microtiter plate (manufactured by Nunc) 35 μl of a Tris buffer (50 mM Tris-HCl, pH 7.5) containing 0.35 μg of Streptavidin (manufactured by PIERCE) was added to perform immobilization at 4° C. for 16 hours. After these wells were washed with 90 μl of a washing solution (physiological saline containing 0.01% Tween 20) once, 200 μl of Block Ace (manufactured by Dainippon Sumitomo Pharma Co., Ltd.) was added, and this was allowed to stand at room temperature for 2 hours, to perform blocking (a Streptavidin solid-phased plate). […] Then, after each well was washed with 90 μl of a washing solution three times, 15 μl of TMB+-Substrate-Chromogen (manufactured by DAKO) was added to develop a color at room temperature for 30 minutes, 15 μl of 0.05 M sulfuric acid was added to stop the reaction, and absorbance at 450 nm was measured. […] Therefore, the antibody of the present invention can be said to have an affinity for Tn-100-mer biotin of lower than 1.0×10^−9 (M), and can be said to have the ability to bind to a Tn20-mer tandem structure fragment. More particularly, it can also be said that the antibody of the present invention has a ratio (A100/A20) of absorbance at 450 nm in the case of use of Tn20-mer biotin (A20) and absorbance at 450 nm in the case of use of Tn100-mer biotin (A100), of 2 or lower.

T1 sequence (P15941 136-235): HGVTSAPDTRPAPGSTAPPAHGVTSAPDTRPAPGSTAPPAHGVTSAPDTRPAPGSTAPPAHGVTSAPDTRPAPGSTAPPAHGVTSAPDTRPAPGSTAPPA

B1: 1B2: mouse monoclonal anti-MUC1 antibody, isotype IgG2a, clone from immunization with 2,3-ST(DT*R)-20 conjugated to BSA (antibody, V domains shown)
VH: MEWIWIFLFILSGTAGVQSQVQLQQSGAELARPGASVKLSCKASGYTFTNYGLSWVKQRTGQGLEWIGENHPGSGIIYHNEKFRGKATLTADKSSSTAYVQLSSLTSEDSAVYFCARSSGTRGFAYWGQGTLVTVSA
VL: MKLPVRLLVLMFWIPASSSDVLMTQTPLSLPVSLGDQASISCRSSQSIVHSNGNTYLEWYLQKPGQSPKLLIYKVSNRFSGVPDRFSGSGSGTDFTLKISRVEAEDLGVYYCFQGSHGPWTFGGGTKLEIKRA
modifications: Antibody 1B2 VH sequence; Antibody 1B2 VL sequence
Which results are given for B1?
Kd1 [1]: 0.00015 s⁻¹; ka1 [1]: 410000 M⁻¹ s⁻¹; Kd ([1]; read-out: dissociation constant KD): 0.37 nM; Cross reactivity letting 2,3-ST to be 100% [2]: 0.15%; Cross reactivity letting 2,3-ST to be 100% [3]: 0.063%; Cross reactivity letting 2,3-ST to be 100% [4]: 96%; Cross reactivity letting 2,3-ST to be 100% [5]: 0.13%; Cross reactivity letting 2,3-ST to be 100% [6]: 0.064%; Cross reactivity letting 2,3-ST to be 100% [7]: 3.0%; reactivity by peptide chain length ([8]; Biotin-Tn(DT*R)-40, -60, -80, -100): approximately the same reactivity; dependency on the length of the tandem repeat ([8]; absorbance at 450 nm, 20-mer to 100-mer): low dependency on a length of the tandem repeat
